Data from patent US5824869.

Key:
[1] = biological target: Rs-AFP2 (Raphanus sativus antifungal protein 2) (Raphanus sativus)
[2] = biological target: Rs-AFP1 (Raphanus sativus antifungal protein 1) (Raphanus sativus)

Substance	antifungal activity on Fusarium culmorum after digestion with the protease [1] [fold]	antifungal activity on Fusarium culmorum after digestion with the protease [2] [fold]
chymotrypsin (enzyme)	10	10
pronase E (enzyme)	10	10
proteinase K (from UniProt P06873) (enzyme)	10	10
trypsin (enzyme)	10	10
